Test results: PMC10212944

Legend:
RPA S384D [1] = molecular target: T1, RPA S384D (Homo sapiens, UniProt P27694;P15927;P35244 1-616;1-270;1-121, S384D); assay: competition (facilitated exchange, stopped-flow FRET); displaces Cy3/Cy5-RPA, kFE 0.9 s-1; Stopped flow: 30 mM HEPES pH 7.8, 100 mM KCl, 5 mM MgCl2, 6% glycerol, 1 mM b-ME, 25 C; anisotropy: 50 mM Tris-acetate pH 7.5, 50 mM KCl, 5 mM MgCl2, 1 mM DTT; conditions: protein: recombinant; copies: 1;1;1
RPA (wild type) [2] = molecular target: T2, RPA (wild type) (Homo sapiens, UniProt P27694;P15927;P35244 1-616;1-270;1-121); assay: competition (facilitated exchange, stopped-flow FRET); displaces Cy3/Cy5-RPA, kFE 1.8 s-1; Stopped flow: 30 mM HEPES pH 7.8, 100 mM KCl, 5 mM MgCl2, 6% glycerol, 1 mM b-ME, 25 C; anisotropy: 50 mM Tris-acetate pH 7.5, 50 mM KCl, 5 mM MgCl2, 1 mM DTT; conditions: protein: recombinant; copies: 1;1;1
T2 sequence (P27694 whole entry, chain 1 of 3): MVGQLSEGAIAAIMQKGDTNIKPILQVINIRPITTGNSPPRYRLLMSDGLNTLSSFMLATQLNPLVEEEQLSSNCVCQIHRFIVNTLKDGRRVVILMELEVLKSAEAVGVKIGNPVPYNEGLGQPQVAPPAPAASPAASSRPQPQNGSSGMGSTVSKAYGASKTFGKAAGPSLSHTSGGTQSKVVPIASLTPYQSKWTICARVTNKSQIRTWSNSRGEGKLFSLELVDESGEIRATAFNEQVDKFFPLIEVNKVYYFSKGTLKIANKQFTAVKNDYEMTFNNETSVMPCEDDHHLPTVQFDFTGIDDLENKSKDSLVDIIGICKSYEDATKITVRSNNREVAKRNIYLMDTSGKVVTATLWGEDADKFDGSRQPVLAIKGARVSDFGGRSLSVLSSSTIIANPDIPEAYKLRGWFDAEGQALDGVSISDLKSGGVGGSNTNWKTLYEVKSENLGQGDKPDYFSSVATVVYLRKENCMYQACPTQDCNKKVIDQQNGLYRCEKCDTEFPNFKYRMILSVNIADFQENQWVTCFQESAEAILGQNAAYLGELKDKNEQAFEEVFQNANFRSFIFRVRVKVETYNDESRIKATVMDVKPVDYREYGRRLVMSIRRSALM
T2 sequence (P15927 whole entry, chain 2 of 3): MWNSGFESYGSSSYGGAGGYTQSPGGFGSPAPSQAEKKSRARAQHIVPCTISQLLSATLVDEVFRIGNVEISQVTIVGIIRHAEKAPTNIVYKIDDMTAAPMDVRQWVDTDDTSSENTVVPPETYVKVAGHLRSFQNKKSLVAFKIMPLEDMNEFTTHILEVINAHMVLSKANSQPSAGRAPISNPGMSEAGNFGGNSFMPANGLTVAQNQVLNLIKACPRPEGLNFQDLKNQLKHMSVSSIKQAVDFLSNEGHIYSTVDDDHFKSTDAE
T2 sequence (P35244 whole entry, chain 3 of 3): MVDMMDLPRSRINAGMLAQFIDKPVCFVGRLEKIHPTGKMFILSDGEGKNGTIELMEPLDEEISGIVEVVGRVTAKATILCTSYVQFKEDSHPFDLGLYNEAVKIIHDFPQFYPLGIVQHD

RPA S384D [3] = molecular target: T1, RPA S384D; assay: fluorescence anisotropy; stoichiometric binding; same as WT; Stopped flow: 30 mM HEPES pH 7.8, 100 mM KCl, 5 mM MgCl2, 6% glycerol, 1 mM b-ME, 25 C; anisotropy: 50 mM Tris-acetate pH 7.5, 50 mM KCl, 5 mM MgCl2, 1 mM DTT; conditions: protein: recombinant; copies: 1;1;1; label: 5'-FAM
RPA (wild type) [4] = molecular target: T2, RPA (wild type); assay: fluorescence anisotropy; stoichiometric binding; Stopped flow: 30 mM HEPES pH 7.8, 100 mM KCl, 5 mM MgCl2, 6% glycerol, 1 mM b-ME, 25 C; anisotropy: 50 mM Tris-acetate pH 7.5, 50 mM KCl, 5 mM MgCl2, 1 mM DTT; conditions: protein: recombinant; copies: 1;1;1; label: 5'-FAM
RPA (wild type) [5] = molecular target: T2, RPA (wild type); assay: stopped-flow Trp fluorescence (koff/kon); kon 5.2e10 M-1 s-1, koff 39 s-1 as printed; Stopped flow: 30 mM HEPES pH 7.8, 100 mM KCl, 5 mM MgCl2, 6% glycerol, 1 mM b-ME, 25 C; anisotropy: 50 mM Tris-acetate pH 7.5, 50 mM KCl, 5 mM MgCl2, 1 mM DTT; conditions: protein: recombinant; copies: 1;1;1
RPA S384D [6] = molecular target: T1, RPA S384D; assay: size exclusion chromatography; major 1:1, minor 2:1 protein:DNA; Stopped flow: 30 mM HEPES pH 7.8, 100 mM KCl, 5 mM MgCl2, 6% glycerol, 1 mM b-ME, 25 C; anisotropy: 50 mM Tris-acetate pH 7.5, 50 mM KCl, 5 mM MgCl2, 1 mM DTT; conditions: protein: recombinant; copies: 1;1;1

T1 sequence (P27694 whole entry S384D, chain 1 of 3): as the sequence (P27694 whole entry, chain 1 of 3) above, with S384D counted along it
T1 sequence (P15927 whole entry, chain 2 of 3): as the sequence (P15927 whole entry, chain 2 of 3) above
T1 sequence (P35244 whole entry, chain 3 of 3): as the sequence (P35244 whole entry, chain 3 of 3) above

| Binder | binding result (RPA S384D [3]) | binding result (RPA (wild type) [4]) | other results |
| --- | --- | --- | --- |
| (dT)97 (ssDNA) DNA: TTTTTTTTTTTTTTTTTTTTTTTTTTTTTTTTTTTTTTTTTTTTTTTTTTTTTTTTTTTTTTTTTTTTTTTTTTTTTTTTTTTTTTTTTTTTTTTTT | – | – | binding result (RPA S384D [1]): binds; binding result (RPA (wild type) [2]): binds |
| TTTTTTTTTTTTTTTTTTTTTTTTTTTTTTTTTTTTTTTT (ssDNA) [5'-FAM-(dT)40] | binds | binds | – |
| TTTTTTTTTTTTTTTTTTTTTTTTTTTTTTTTTTT (ssDNA) [(dT)35] | – | – | Kd (RPA (wild type) [5]): 750 ± 400 pM; binding result (RPA S384D [6]): binds |
| TTTTTTTTTTTTTTTTTTTT (ssDNA) [5'-FAM-(dT)20] | binds | binds | – |
